This note sets out measurements from article PMC3141052.

One may read the stoichiometry N as the number of molecules, sites or subunits per partner or assembly.

For the experiment, the target named is P domain protein of norovirus VA207 (GII.9), amino acid 222-537 (norovirus VA207 (GII.9)). The experiment can be described thus: crystal structure; native P protein (P2(1)2(1)2) and its complexes with Le^y or SLe^x tetrasaccharide (P2(1)2(1)2(1)); hanging drop, PEG 3350, 50 mM magnesium formate.

Regarding “P domain protein of norovirus VA207 (GII.9), amino acid 222-537 (domain or fragment)”, the stoichiometry N stood at 2.
